This passage reports fold microtubule binding relative to WT protein results from publication PMC7654188.

The assay deals with preassembled microtubule filaments (tubulin polymerised with Taxol). In words: co-sedimentation; microtubule spin-down assay (Cytoskeleton BK029): 5, 10 and 20 ug of COS1 lysate with or without Taxol-stabilised microtubule, room temperature 30 min, 60% glycerol cushion, 100,000 x g 40 min; pellet blotted with HA tag and alpha-tubulin antibodies.

For the substance “HA-tagged CTTNBP2 D570Y (natural protein)”, the fold microtubule binding relative to WT protein lay in the range of 2.5 to 4 fold.
